EC50 data for two molecules are collected here from patent US20180037651A1 (published 2018).

The target in this test is T1, human GPRC5D (UniProt Q9NZD1 1-345).
T1 chain: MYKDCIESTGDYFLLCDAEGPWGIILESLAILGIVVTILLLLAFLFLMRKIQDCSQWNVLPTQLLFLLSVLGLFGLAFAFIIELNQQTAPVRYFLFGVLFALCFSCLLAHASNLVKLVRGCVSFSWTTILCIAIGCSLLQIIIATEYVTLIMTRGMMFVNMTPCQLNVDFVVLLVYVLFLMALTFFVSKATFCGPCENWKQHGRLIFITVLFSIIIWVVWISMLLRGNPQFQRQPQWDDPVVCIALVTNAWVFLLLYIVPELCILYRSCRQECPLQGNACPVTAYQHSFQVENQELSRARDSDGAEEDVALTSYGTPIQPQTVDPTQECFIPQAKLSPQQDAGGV
The test is described as follows: FACS cell binding; MM.1R cells.

B1: GC5B599 (antibody, V domains shown)
VH: EVQLVQSGAEVKKPGESLKISCKGSGYSFTSYFIGWVRQMPGKGLEWMGIIYPGKSDTRYSPSFQGQVTISADKSISTAYLQWSSLKASDTAMYYCARVYSFGGRHKALFDYWGQGTLVTVSS
VL: EIVLTQSPATLSLSPGERATLSCRASQSVSSYLAWYQQKPGQAPRLLIYDASNRATGIPARFSGSGSGTDFTLTISSLEPEDFAVYYCQQRSNWPLTFGQGTKVEIK
What is called EC50 is the midpoint of the concentration-response curve. A high value points to lower potency in that assay. The molecule B1 gave an EC50 of 100 pM.

B2: GC5B603 (antibody, V domains shown)
VH: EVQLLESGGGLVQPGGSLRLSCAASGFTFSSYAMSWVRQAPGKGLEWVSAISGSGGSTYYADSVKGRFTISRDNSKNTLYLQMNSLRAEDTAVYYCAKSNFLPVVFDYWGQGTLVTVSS
VL: EIVLTQSPATLSLSPGERATLSCRASQSVRKSLAWYQQKPGQAPRLLIYTASNRATGIPARFSGSGSGTDFTLTISSLEPEDFAVYYCQQYFRAPITFGQGTKVEIKK
The molecule B2 returned an EC50 of 1670 pM.
